Reference: publication PMC10923870, “A three-level regulatory mechanism of the aldo-keto reductase subfamily AKR12D” (Nature Communications, 2024)

Tests used:
AKRtyl = target: T1, AKRtyl (Streptomyces xinghaiensis, UniProt A0A3R7J519); assay: X-ray crystal structure ([…] Å), equilibrium tryptophan fluorescence quenching and stopped-flow; assay type: binding
T1 construct: gene SFRA_012675; N-terminally His6-tagged AKRtyl, octamer

AKR_coelicolor = target: T2, AKR_coelicolor (Streptomyces coelicolor, UniProt Q9F2Z5); assay: steady-state kinetics, inhibition at high NADPH concentration; assay type: biochemical
T2 construct: gene SCO4352
T2 sequence (Q9F2Z5 1-330): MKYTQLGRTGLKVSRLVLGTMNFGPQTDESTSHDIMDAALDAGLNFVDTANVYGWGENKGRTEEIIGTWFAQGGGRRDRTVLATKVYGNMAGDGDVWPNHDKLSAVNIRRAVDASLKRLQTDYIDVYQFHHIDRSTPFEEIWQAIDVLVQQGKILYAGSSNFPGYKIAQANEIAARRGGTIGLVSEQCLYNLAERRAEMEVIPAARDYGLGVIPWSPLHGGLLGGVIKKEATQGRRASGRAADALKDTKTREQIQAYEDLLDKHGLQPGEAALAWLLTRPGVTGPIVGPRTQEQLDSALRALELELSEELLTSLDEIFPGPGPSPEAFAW

[1] = tested on: NC(=O)C1=CN([C@@H]2O[C@H](COP(=O)(O)OP(=O)(O)OC[C@H]3O[C@@H](n4cnc5c(N)ncnc54)[C@H](OP(=O)(O)O)[C@@H]3O)[C@@H](O)[C@H]2O)C=CC1; assay: tryptophan fluorescence quenching (equilibrium and stopped-flow); steady-state kinetics (Km); assay type: biochemical, Streptomyces xinghaiensis; details: Trp331 of the C-terminal tail loop contributes to binding of both NADPHs; varied: cofactor
[2] = target: the molecule itself; assay: crystal structure; sitting-drop vapour diffusion at 20 °C; AKRtyl at 10 mg/ml in 10 mM Tris-HCl pH 7.5, 150 mM NaCl; purified-state, apo, NADP(H), NADP+-tylosin and tylosin forms, all octameric

## NC(=O)C1=CN([C@@H]2O[C@H](COP(=O)(O)OP(=O)(O)OC[C@H]3O[C@@H](n4cnc5c(N)ncnc54)[C@H](OP(=O)(O)O)[C@@H]3O)[C@@H](O)[C@H]2O)C=CC1 [NADPH]
AKRtyl
  Kd: 450 nM
AKR_coelicolor
  steady-state kinetics, inhibition at high NADPH concentration: inhibition by the cofactor NADPH at high concentrations was also observed for these two AKRs

## AKRtyl (Streptomyces xinghaiensis; W331A)
[1]
  K0.5: 11.03 µM
  kcat: 0.18 ± 0.01 s⁻¹
  kcat/Km: 16300 M⁻¹ s⁻¹

B1: AKRtyl (tylosin reductase, aldo-keto reductase AKR12D1) (enzyme, S. fradiae)
chain: MEYTQLGRIGLKVSRLVLGTMNFGPTTDEAESHAIMDAALDAGINFFDTANVYGWGENKGRTEEILGSWFAQGGDRRDKVVLATKVYGNMGLDGPAWPNHDKLSALNIRRSVDASLKRLGTDHIDLYQFHHVDRDTPWDEIWQAMDVLVRQGKILYVGSSNFAGWNIAQANETAARHGRLGLVSEQCLYNLCERRAEMEVVPAAREYGLGVIAWSPLHGGLLGGAIRKEQEGGNRRAASGRAADALKDPQQREQIQRYEDLLDKHGLEPGEVALAWLLTRPGVTGPIVGPRTADQLASAVRAAELTLTDEVLTALDEIFPGPGPSPEAFAW
notes: AKRtyl, tylosin reductase of the tylosin producer S. fradiae, UniProt A0A3R7J519; protein coding gene cloned into pET28a between NdeI and XhoI; Octamer made of two homotetramers; also called WT; source: E. coli BL21 (DE3), purified (Ni-NTA, size-exclusion chromatography on Superdex 200 increase)
[2]
  stoichiometry N: 8
